As usually defined, the Kd is the equilibrium constant for the complex coming apart. The koff is a measure of how fast the partners let go of each other. The kon is a measure of how fast the partners come together.

These results are taken from patent US20250074997A1 (PERSONGEN BIOTHERAPEUTICS SUZHOU, published 2025).

First the molecules themselves.
B1: phage mono clone 1-F9 (VHH)
VHH: QSLLVESGGGLVQPGGSLRLSCAASGFSLDYYAIGWFRQAPGKEREEVSCISSGGGSTNYADSVKGRFTISRDNAKNTVYLQMNSLKPEDTAVYYCAAKRNFMLYLVQCPYEYDYWGQGTQVTVSS
notes: the phage coat fusion part is not described; also called 1-F09
B2: phage mono clone 1-B4 (VHH)
VHH: QVQLVESGGGLVQPGGSLRLSCAASGFTLDYYAIGWFRQAPGKEREGVSCISSTGGSTNYADSVKGRFTISRDNAKNTVYLQMNSLKPEDTAVYYCAADTHYLTVCYDRLGFDYWGQGTQVTVSS
notes: the phage coat fusion part is not described
B3: phage mono clone 3-G07 (VHH)
VHH: RLQLVESGGGLVQPGGSLRLSCAVSGKALDYYSIGWFRQAPRKQREGVSCISSSGGSTNYADSVKGRFTISRDNAKDTVYLQMNSLKPEDTADYYCAVVSTVLCGLGIYEYDYWGQGTLVTVSS
notes: as for B2
B4: phage mono clone 1-F1 (VHH)
VHH: EVQLAESGGGLVQPGGSLRLSCAASGFTFSSYTMSWVRQAPGKGLEWVSAIDSDGGVTSYADSVKGRFTISRDNAKNTLYLQMNSLKPEDTAVYYCANGGYCSGYGCYPRLLSQGTLVTVSS
notes: as for B2
B5: phage mono clone 3-E06 (VHH)
VHH: EVQLVESGGGLVQAGGSLTLSCVASASGSILRLNAMGWYRQAPAKQRELVALITRDGSTNYPDSVKGRFTISRDNAKNTVYLQMSSLSPEDTAVYYCYVQNHYSNYWGQGTQVTVSS
notes: as for B2
B6: phage mono clone 1-F10 (VHH)
VHH: QVQLVESGGGLVQPGGSLRLSCAASGSILSIRAVGWYRQAPGKQRELVALITSDGTTHYALSVKGRFTISRDNAKTTVYLQMNSLKPEDTAVYYCNREDYARRYWGQGTQVTVSS
notes: as for B2
B7: phage mono clone 1-G1 (VHH)
VHH: QVQLVESGGGLVQPGGSLRLSCAASGNSLRRYAIGWFRQAPGKEREGVVCISTVGGSSYYVDSVKGRFTISEDNVKNTAYLQMNSLEPEDTAVYYCAAANRLYCPAYGSAGYDYWGQGTQVTVSS
notes: as for B2
B8: phage mono clone 1-H8 (VHH)
VHH: QRQLVESGGGLVQPGGSLRLSCAVSEFTLDYYAIGWFRQAPGKEREGVSCISSSGGSTVYADSVKGRFTISADNAKNTVYLQMNSLKPEDTAVYYCAAGSLLLFRLCVSRLYEYDYWGQGTQVTVSS
notes: as for B2
B9: phage mono clone 1-G2 (VHH)
VHH: QSQLAESGGGLVQPGGSLRLSCVASRFSLDAYAIAWFRQAPGKEREGVSCISSIGGRTNYADPVKGRFTISRDNAKNTAYLEMNSLQPEDTAVYYCAAVQRLFGPCLLSGGMDYWGKGTPVTVSS
notes: as for B2
B10: phage mono clone 3-H02 (VHH)
VHH: QLTLVESGGGLVQPGGSLRLSCAASEFTLDYYAIGWFRQAPGKEREGVSCISSSDGSTYYADSVKGRFTISRDNAKNTVYLQMNSLKPEDTAVYYCAIGGLLLLRLWERGNYEFDYWGQGTQVTVSS
notes: as for B2
B11: phage mono clone 1-H2 (VHH)
VHH: QVQLVESGGGLVQPGGSLRLSCAASGSTLDYYAIAWFRQAPGKGREGVSCISSSGGRTNYADSVKGRFTVSRDNVKNTVYLQMNSLKPEDTAVYNCAAGGDLSCYGTPTSIWQYDLWGQGTQVTVAS
notes: as for B2
B12: phage mono clone 3-E03 (VHH)
VHH: AVQLVDSGGGLVQAGGSLRLSCAASGIRLSSNAMAWYRQAPGKQRGLVALITSDGTTNYVDSVKGRFTISRDNAKNTVYLQMNSLKPEDTAVYYCKREPYLSTRGYWGQGTQVTVSS
notes: as for B2
B13: phage mono clone 3-E09 (VHH)
VHH: AVQLVDSGGGLVQPGGSLRLSCAASGFTFSSYAMGWARQVPGKGLEWVSIIYRDGNTYYTDSVKGRFTISRDNAKNTVYLQMNSLKPEDTAVYYCAPVETVAARRRDYWGQGTQVNVSS
notes: as for B2
B14: phage mono clone 3-E10 (VHH)
VHH: B13 VHH
notes: as for B2
B15: phage mono clone 3-E04 (VHH)
VHH: QLRLVESGGGLVQPGGSLRLSCAASGFTLDYYDIGWFRQAPGKEREGVSCIGRISGDTDYAESVKGRFTASRDNAKNTVYLQMNSLKPEDTAVYYCAAERRFFGGGCRRSVDNMDSWGKGTLVTVSS
notes: as for B2
B16: pcDNA3.4-SDAB20-7-26-2-1-F9-hFC (Fc fusion)
chain: B1 VHH
notes: also called 1-F09; not shown: human IgG1 Fc from vector pcDNA3.4-hIgG1-Fc2
B17: pcDNA3.4-SDAB20-7-26-2-3-H02-hFC (Fc fusion)
chain: B10 VHH
notes: Llama VHH fused in tandem with human IgG1 Fc, expressed in 293 cells, purified on protein A; not shown: human IgG1 Fc from vector pcDNA3.4-hIgG1-Fc2
B18: pcDNA3.4-SDAB20-7-26-2-3-E04-hFC (Fc fusion)
chain: B15 VHH
notes: as for B17

The target in the first experiment is T1, UPAR-His recombinant protein (UniProt Q03405 23-303).
T1 construct: range 23-303; Expressed in 293 cells, purified on Ni-NTA; Biotinylated in the uPA ELISA; also called UPAR-His antigen; biotinUPAR-His; not shown: C-terminal His tag
T1 sequence (Q03405 23-303 limits assumed): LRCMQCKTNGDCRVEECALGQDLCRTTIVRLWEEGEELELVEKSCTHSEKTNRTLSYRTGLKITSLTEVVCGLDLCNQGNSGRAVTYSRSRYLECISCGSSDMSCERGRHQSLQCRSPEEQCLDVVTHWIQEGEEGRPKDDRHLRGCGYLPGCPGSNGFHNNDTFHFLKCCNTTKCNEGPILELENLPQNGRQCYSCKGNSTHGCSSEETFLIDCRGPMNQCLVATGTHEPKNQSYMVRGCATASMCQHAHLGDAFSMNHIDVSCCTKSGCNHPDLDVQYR
Kind of experiment: phage ELISA, plate coated with UPAR-His, HRP-anti-M13. (In general: In an ELISA, binding on a coated surface is turned into a signal by an enzyme label.)
B1: the S/N ratio was more than 5.
Consider B2, for which the S/N ratio was more than 5.
The same measure, in the same setting: for B3 the value was more than 5; for B4, more than 5.
The same measure, in the same setting: to B5 belongs more than 5.
Still for that read-out and setting: to B6 belongs more than 5; to B7, more than 5; to B8, more than 5.
For the molecule B9, the S/N ratio is more than 5.
Same read-out and setting: to B10 belongs more than 5; to B11, more than 5.
For the molecule B12, the S/N ratio was more than 5.
The same measure, in the same setting: to B13 belongs more than 5; to B14, more than 5.
With B15, the S/N ratio is more than 5.

The target of a further experiment is T1, UPAR-His recombinant protein. The experiment is described as follows: SPR (BiaCore T200), UPAR recombinant protein immobilised on CM5 chip, antibody as mobile phase. (SPR reads the build-up and loss of mass on a sensor chip optically.)
As to B16, the Kd was 1.49 nM, the off-rate constant (koff) amounted to 0.000101 s⁻¹ and the kon was found to be 67600 M⁻¹ s⁻¹.
Turning to B17, the Kd came to 1.31 nM, the koff came out at 0.000173 s⁻¹ and the kon was found to be 132000 M⁻¹ s⁻¹.
In the same order, the values of B18 are 22.3 nM, 0.00139 s⁻¹ and 62700 M⁻¹ s⁻¹.
